PMC8693174

How the values were obtained:
Assay in all cases: potentiometry
Details in all cases: 25 °C; I = 0.1 M (KNO3); samples in 96 mM KNO3/4 mM HNO3; none (96 mM KNO3/4 mM HNO3); Free peptide, no metal, under argon
[1] = molecular target: His2 (position 2, ----RHDSG--)
[2] = molecular target: Nterm1 (position 1, -----RHDSG-)
[3] = molecular target: Asp3 (position 3, ---RHDSG---)

B1: Amyloid-beta 5-9 peptide (Abeta5-9), Arg-His-Asp-Ser-Gly-NH2 (Homo sapiens (synthetic peptide)) (peptide)
chain: RHDSG
[1]
  pKa: 6.13
[2]
  pKa: 7.37
[3]
  pKa: 3.17
